From US8129345B2, “MUC1-IκB kinase complexes and their activities” (Dana-Farber Cancer Institute, Inc., priority 2006, dated 2012)

How the values were obtained:
IKKβ-IKKγ complexes = IKKβ-IKKγ complexes (Homo sapiens, UniProt O14920+Q9Y6K9); test: In vitro association of IKKβ with GST-IKKγ in absence and presence of MUC1-CD proteins; format: binding; conditions: purified IKKβ and GST-IKKγ, with or without added MUC1 protein
Protocol: FIG. 7C is a series of photographs of immunoblots. GST- or GST-IKKγ bound to glutathione beads was incubated with IKKβ in the absence and presence of MUC1-CD protein. The precipitates were immunoblotted (IB) with anti-IKKβ (upper panel). Input amounts of the various proteins were assessed by immunoblotting with the indicated antibodies (lower 3 panels). The molecular weights of proteins (as indicated on the left of the photographs) are expressed as kilodaltons (kDa).
(§1) FIG. 12 is a series of photographs of immunoblots. GST, and GST-IKKγ fusion proteins bound to glutathione beads were incubated with MUC1-CD, MUC1-CD(mSRM), or IKKβ proteins as indicated. The GST-pull down precipitates were immunoblotted (IB) with antibodies specific for IKKγ (top panel), IKKβ (middle panel), or MUC1 (bottom panel) as indicated. The molecular weights of proteins (as indicated on the left of the photographs) are expressed as kilodaltons (kDa).
In vitro binding assays. Purified GST-MUC1-CD (glutathione s-transferase fused to the MUC1-CD polypeptide) was cleaved with thrombin to remove the GST moiety. […] Adsorbates to glutathione-conjugated beads were analyzed by immunoblotting.

IKKβ = IKKβ (Homo sapiens, UniProt O14920); test: In vitro incubation of IKKβ and IKKγ with ATP, phospho-IKKβ-Ser-181 immunoblot; format: biochemical; conditions: MUC1 protein added to the reaction
Protocol: as §1, with “13” for “12”, “for (from top to bottom) phosphor-IKKβ-Ser-181 (first panel),” for “for”, “(second” for “(top”, “(third” for “(middle”, “(fourth” for “(bottom”

Chain of IKKβ (O14920 whole entry): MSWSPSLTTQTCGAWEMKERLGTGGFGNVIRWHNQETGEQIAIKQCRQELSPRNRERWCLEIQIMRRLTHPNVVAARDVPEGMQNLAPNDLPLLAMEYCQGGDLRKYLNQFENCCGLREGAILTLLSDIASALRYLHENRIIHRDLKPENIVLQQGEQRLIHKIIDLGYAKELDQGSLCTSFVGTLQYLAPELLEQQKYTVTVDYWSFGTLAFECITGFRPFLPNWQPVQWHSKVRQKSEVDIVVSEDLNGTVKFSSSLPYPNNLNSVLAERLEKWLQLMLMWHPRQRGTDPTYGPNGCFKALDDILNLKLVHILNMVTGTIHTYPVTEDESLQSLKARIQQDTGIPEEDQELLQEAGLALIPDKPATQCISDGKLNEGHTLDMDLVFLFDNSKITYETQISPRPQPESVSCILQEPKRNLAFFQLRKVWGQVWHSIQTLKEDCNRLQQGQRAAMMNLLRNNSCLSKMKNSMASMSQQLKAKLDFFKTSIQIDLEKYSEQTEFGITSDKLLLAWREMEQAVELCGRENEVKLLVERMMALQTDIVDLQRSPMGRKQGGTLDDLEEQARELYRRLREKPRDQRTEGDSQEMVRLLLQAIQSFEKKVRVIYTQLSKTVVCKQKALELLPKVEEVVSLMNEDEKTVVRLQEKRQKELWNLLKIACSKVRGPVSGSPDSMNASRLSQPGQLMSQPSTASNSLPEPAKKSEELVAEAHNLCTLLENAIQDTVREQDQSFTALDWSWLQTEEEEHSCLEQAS
Chain of IKKβ (Q9Y6K9 whole entry partner): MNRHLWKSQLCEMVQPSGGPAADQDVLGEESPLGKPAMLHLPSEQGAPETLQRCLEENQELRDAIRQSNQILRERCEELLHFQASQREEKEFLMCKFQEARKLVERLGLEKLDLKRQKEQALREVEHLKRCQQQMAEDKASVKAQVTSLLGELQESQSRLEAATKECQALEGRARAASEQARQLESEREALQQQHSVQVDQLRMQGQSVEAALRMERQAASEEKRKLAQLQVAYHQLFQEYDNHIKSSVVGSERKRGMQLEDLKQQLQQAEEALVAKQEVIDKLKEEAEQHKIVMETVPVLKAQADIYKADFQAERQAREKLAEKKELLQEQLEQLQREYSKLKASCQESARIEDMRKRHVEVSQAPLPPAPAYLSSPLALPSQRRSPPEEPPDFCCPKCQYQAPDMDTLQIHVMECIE
Chain of IKKβ-IKKγ complexes (O14920 whole entry): as the sequence (O14920 whole entry) above
Chain of IKKβ-IKKγ complexes (Q9Y6K9 whole entry): as the sequence (Q9Y6K9 whole entry partner) above

extent of IKKβ phosphorylation on Ser-181 (IKKβ): increased significantly
Substance: MUC1-CD: 72 amino acid cytoplasmic domain of human MUC1, SEQ ID NO:2
interaction between IKKβ and IKKγ (IKKβ-IKKγ complexes): increases the interaction between IKKβ and IKKγ
